Reference: the supplement of paper PMC7877785
± gives the uncertainty stated by the source.

Assay: self-splicing fitness, log relative to wild type (ln ratio); higher = more splicing; Tetrahymena group I intron in knt gene, E. coli kanamycin selection, DiMSum; sequences stand for … in CUCUCU…GGAGGGAAAAGUUAUCAGGCAUGCACCUGGUAGCUAGUCUUUAAACCAAUAGAUUGCAUCGGUUUAAAAGGCAAGACCGUCAAAUUGCGGGAAAGGGGUCAACAGCCGUUCAGUACCAAGUCUCAGGGGAAACUUUGAGAUGGCCUUGCAAAGGGUAUGGUAAUAAGCUGACGGACAUGGUCCUAACCACGCAGCCAAGUCCUAAGUCAACAGAUCUUCUGUUGAUAUGGAUGCAGUUCACAGACUAAAUGUCGGUCGGGGAAGAUGUAUUCUUCUCAUAAGAUAUAGUCGGACCUCUCCUUAAUGGGAGCUAGCGGAUGAAGUGAUGCAACACUGGAGCCGCUGGGAACUAAUUUGUAUGCGAAAGUAUAUUGAUUAGUUUUGGAGUACUCGUGGUCG
How it was run: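 A randomised library covering all eight P1ex-region intron nucleotides was built with the intron in the knt kanamycin-resistance gene on pET-22b(+) and held in E. coli BL21(DE3). Cells were grown overnight at 37°C or 30°C on LB agar, with or without 25 μg/mL kanamycin, plus 100 μg/mL carbenicillin, 50 μM IPTG and 0.2% rhamnose, and pooled colonies were amplicon-sequenced on an Illumina HiSeq 2500. DiMSum fitness is the error-weighted combination of wild-type-normalised replicate fold changes, kanamycin versus none.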

Sequence | self-splicing fitness (ln) (30 °C) | self-splicing fitness (ln) (37 °C)
UACUAGCAAUAUUACGGUAA | -2.33 ± 0.14 | -1.01 ± 0.12
CGUAAGCAAUAUUACGCUCG | -1.8 ± 0.17 | -0.572 ± 0.23
UCUUAGCAAUAUUACGAAGU | -1.65 ± 0.15 | -1.42 ± 0.27
CUAGAGCAAUAUUACGCGGU | -1.42 ± 0.092 | -0.641 ± 0.13
AGGUAGCAAUAUUACGCGUU | -1.888 ± 0.015 | -0.903 ± 0.033
GACCAGCAAUAUUACGGACG | 0.108 ± 0.075 | 0.272 ± 0.094
UUUUAGCAAUAUUACGUCCA | -1.59 ± 0.22 | -0.545 ± 0.19
GGCGAGCAAUAUUACGGGGA | -2.39 ± 0.2 | -2.29 ± 0.29
GACCAGCAAUAUUACGCUAA | -1.18 ± 0.078 | 0.196 ± 0.093
UGAAAGCAAUAUUACGACAC | -2.11 ± 0.34 | -1.18 ± 0.4
UCCGAGCAAUAUUACGUGCG | -3.49 ± 0.43 | -2.63 ± 0.34
UACAAGCAAUAUUACGCUUU | -3.73 ± 0.17 | -2.29 ± 0.16
CCACAGCAAUAUUACGCUAU | -3.61 ± 0.26 | -3.12 ± 0.25
GUUGAGCAAUAUUACGAUCG | -1.18 ± 0.39 | 
UGGCAGCAAUAUUACGUACC | -0.627 ± 0.17 | -0.885 ± 0.23
UCCAAGCAAUAUUACGAUGC | -2.69 ± 0.31 | 
CAGCAGCAAUAUUACGAUGC | -4.05 ± 0.28 | -2.89 ± 0.34
CAACAGCAAUAUUACGAUGG | -0.426 ± 0.056 | 0.257 ± 0.075
AUAUAGCAAUAUUACGAAUG | -1.77 ± 0.16 | -1.54 ± 0.18
AUUUAGCAAUAUUACGACAC | -0.837 ± 0.12 | -0.373 ± 0.14

Sequence | self-splicing fitness (ln) (30 °C) | self-splicing fitness (ln) (37 °C)
AGGUAGCAAUAUUACGAAUC | -3.462 ± 0.031 | -2.2 ± 0.041
UAUUAGCAAUAUUACGCGCU | -0.731 ± 0.15 | -0.558 ± 0.18
GACUAGCAAUAUUACGCUAG | -2.44 ± 0.31 | -1.16 ± 0.26
GUGGAGCAAUAUUACGAUUC | -0.681 ± 0.31 | 0.0106 ± 0.22
UGCCAGCAAUAUUACGGGGC | -3.04 ± 0.16 | -1.74 ± 0.17
CUCCAGCAAUAUUACGUGGC | -3.82 ± 0.15 | -3.4 ± 0.24
AAUUAGCAAUAUUACGUCAA | -2.11 ± 0.17 | -0.791 ± 0.22
UGUGAGCAAUAUUACGUCUC | -1.96 ± 0.25 | 
CGGCAGCAAUAUUACGACUA | -0.68 ± 0.097 | 0.0629 ± 0.12
GUUUAGCAAUAUUACGCUGU | -1.52 ± 0.12 | -2 ± 0.14
AGGUAGCAAUAUUACGCCUC | -3.88 ± 0.05 | -3.34 ± 0.068
AGCAAGCAAUAUUACGAUAU | -2.16 ± 0.13 | -1.51 ± 0.11
UUUUAGCAAUAUUACGUUUU | -3.49 ± 0.21 | -2.22 ± 0.27
ACCAAGCAAUAUUACGAUUG | -2.86 ± 0.13 | -3.02 ± 0.16
GGGAAGCAAUAUUACGGUAA | -3.01 ± 0.41 | -0.554 ± 0.17
UGAAAGCAAUAUUACGUAAC |  | -1.29 ± 0.25
UCGAAGCAAUAUUACGCAUU | -1.97 ± 0.19 | -2.46 ± 0.26
AUAUAGCAAUAUUACGUCUU | -0.0336 ± 0.1 | -0.378 ± 0.1
UUGUAGCAAUAUUACGUACC | -2.08 ± 0.16 | -1.29 ± 0.17
